B1: GMCL1 (parent)
chain: FCYCAGSHKRKRSSGSFCYCHPDS
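Also: lentivirally expressed fusions sorted by FACS into six bins by GFP to DsRed ratio, PSI derived from sequencing read proportions per bin multiplied by bin number.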

Variants of: B1
Assay: protein stability index of a GFP-peptide fusion (GPS, HEK-293T) (PSI 1-6); higher = more stable
Details: c terminus: a fixed tail appended
Work on FCYKAGSHKRKRSSGSFCYCHPDS [C4K] yielded a protein stability index of 2.07.
Work on FCYLAGSHKRKRSSGSFCYCHPDS [C4L] yielded a protein stability index of 2.81.
For FCYVAGSHKRKRSSGSFCYCHPDS [C4V], the protein stability index was 2.27.
With FCYFAGSHKRKRSSGSFCYCHPDS [C4F] the protein stability index was 1.65.
Work on FCYSAGSHKRKRSSGSFCYCHPDS [C4S] yielded a protein stability index of 2.55.
FCYQAGSHKRKRSSGSFCYCHPDS [C4Q] showed a protein stability index of 1.01.
Variant FCYCAGSHKRKRSSGSFCYCHQDS [P22Q] has a protein stability index of 1.91.
FCYCAGSHKRKRSSGSFCYCHFDS [P22F] gave a protein stability index of 1.38.
For FCYCAGSHKRKRSSGSFCYCHYDS [P22Y], the protein stability index was 2.02.
Work on FCYCAGSHKRKRSSGSFCYCHKDS [P22K] yielded a protein stability index of 2.09.
Work on FCYCAGSHKRKRSSGSFCYCHMDS [P22M] yielded a protein stability index of 1.85.
Work on FCYCAGSHKRKRSSGSFCYCHIDS [P22I] yielded a protein stability index of 1.47.
FCYCAGSHKRVRSSGSFCYCHPDS [K11V] showed a protein stability index of 1.39.
For FCYCAGSHKRARSSGSFCYCHPDS [K11A], the protein stability index was 1.59.
Work on FCYCAGSHKRLRSSGSFCYCHPDS [K11L] yielded a protein stability index of 2.41.
With FCYCAGSHKRHRSSGSFCYCHPDS [K11H] the protein stability index was 2.18.
With FCYCAGSHKRIRSSGSFCYCHPDS [K11I] the protein stability index was 2.92.
FCYCAGSHKRNRSSGSFCYCHPDS [K11N] showed a protein stability index of 1.93.
Variant FCYCAGSHKRSRSSGSFCYCHPDS [K11S] has a protein stability index of 2.85.
FCYCAGSHKRMRSSGSFCYCHPDS [K11M] showed a protein stability index of 2.29.
With FCYCAGSHKRQRSSGSFCYCHPDS [K11Q] the protein stability index was 1.33.
FCYCAGSHKRKRSTGSFCYCHPDS [S14T] gave a protein stability index of 1.46.
Work on FCYCAGSHKRKRSNGSFCYCHPDS [S14N] yielded a protein stability index of 2.37.
With FCYCAGSHKRKRSIGSFCYCHPDS [S14I] the protein stability index was 1.64.
With FCYCAGSHKRKRSPGSFCYCHPDS [S14P] the protein stability index was 1.93.
FCYCAGSHKRKRSKGSFCYCHPDS [S14K] showed a protein stability index of 1.61.
With FCYCAGSHKRKRSHGSFCYCHPDS [S14H] the protein stability index was 2.79.
In the case of FCYCAGSHKRKRSLGSFCYCHPDS [S14L], the protein stability index is reported as 2.6.
FCYCAGSHKRKRSCGSFCYCHPDS [S14C] showed a protein stability index of 1.86.
Variant FCYCAGSHKRKRSQGSFCYCHPDS [S14Q] has a protein stability index of 1.89.
In the case of FCYCAGSHKRKRSSGSFCYIHPDS [C20I], the protein stability index is reported as 2.06.
With FCYCAGSHKRKRSSGSFCYAHPDS [C20A] the protein stability index was 2.01.
FCYCAGSHKRKRSSGSFCYTHPDS [C20T] gave a protein stability index of 1.98.
FCYCAGSHKRKRSSGSFCYHHPDS [C20H] showed a protein stability index of 2.
FCYCAGSHKRKRSSGSFCYFHPDS [C20F] showed a protein stability index of 1.84.
FCYCAGSHKRKRSSGSFCYWHPDS [C20W] gave a protein stability index of 1.95.
FCYCAGSHKRKRSSGSFCYYHPDS [C20Y] showed a protein stability index of 1.71.
Work on FCYCAGSHKRKRSSGSFCYDHPDS [C20D] yielded a protein stability index of 2.73.
Variant FCYCAGSHKRKRSSGSFCYLHPDS [C20L] has a protein stability index of 2.18.
With FCYCAGSHKRKRSSGSFCYGHPDS [C20G] the protein stability index was 1.99.
Work on FCYCAGSHKRKRSSGSFCYQHPDS [C20Q] yielded a protein stability index of 1.5.
Variant FCYCAGSHKRKRSSGSFCYMHPDS [C20M] has a protein stability index of 2.3.
For FCYCAGSHKRKRSSGSFCYSHPDS [C20S], the protein stability index was 1.5.
Work on FCYCAGSHKRKRSSGSFCYVHPDS [C20V] yielded a protein stability index of 1.91.
FCYCAISHKRKRSSGSFCYCHPDS [G6I] showed a protein stability index of 1.54.
Work on FCYCAPSHKRKRSSGSFCYCHPDS [G6P] yielded a protein stability index of 1.34.
Work on FCYCANSHKRKRSSGSFCYCHPDS [G6N] yielded a protein stability index of 2.92.
For FCYCARSHKRKRSSGSFCYCHPDS [G6R], the protein stability index was 2.05.
In the case of FCYCAVSHKRKRSSGSFCYCHPDS [G6V], the protein stability index is reported as 2.68.
Variant FCYCATSHKRKRSSGSFCYCHPDS [G6T] has a protein stability index of 1.55.
With FCYCAKSHKRKRSSGSFCYCHPDS [G6K] the protein stability index was 1.5.
With FCYCALSHKRKRSSGSFCYCHPDS [G6L] the protein stability index was 2.44.
FCYCACSHKRKRSSGSFCYCHPDS [G6C] showed a protein stability index of 2.53.
Work on FCYCAMSHKRKRSSGSFCYCHPDS [G6M] yielded a protein stability index of 2.48.
In the case of FCYCAGSHKRKISSGSFCYCHPDS [R12I], the protein stability index is reported as 1.75.
FCYCAGSHKRKPSSGSFCYCHPDS [R12P] gave a protein stability index of 2.44.
FCYCAGSHKRKASSGSFCYCHPDS [R12A] gave a protein stability index of 2.04.
For FCYCAGSHKRKWSSGSFCYCHPDS [R12W], the protein stability index was 2.9.
In the case of FCYCAGSHKRKKSSGSFCYCHPDS [R12K], the protein stability index is reported as 1.97.
In the case of FCYCAGSHKRKRSSGSFCHCHPDS [Y19H], the protein stability index is reported as 2.67.
Work on FCYCAGSHKRKRSSGSFCPCHPDS [Y19P] yielded a protein stability index of 3.37.
With FCYCAGSHKRKRSSGSFCSCHPDS [Y19S] the protein stability index was 3.31.
Variant FCYCAGSHKRKRSSGKFCYCHPDS [S16K] has a protein stability index of 3.24.
Variant FCYCAGSHKRKRSSGQFCYCHPDS [S16Q] has a protein stability index of 1.69.
Variant FCYCAGSHKRKRSSGNFCYCHPDS [S16N] has a protein stability index of 1.36.
FCYCAGSHKRKRSSGLFCYCHPDS [S16L] showed a protein stability index of 1.26.
Work on FCYCAGSHKRKRSSGAFCYCHPDS [S16A] yielded a protein stability index of 2.33.
FCYCAGSHKRKRSSGEFCYCHPDS [S16E] showed a protein stability index of 3.31.
In the case of LCYCAGSHKRKRSSGSFCYCHPDS [F1L], the protein stability index is reported as 2.8.
For TCYCAGSHKRKRSSGSFCYCHPDS [F1T], the protein stability index was 3.34.
With RCYCAGSHKRKRSSGSFCYCHPDS [F1R] the protein stability index was 3.85.
Variant ICYCAGSHKRKRSSGSFCYCHPDS [F1I] has a protein stability index of 3.79.
PCYCAGSHKRKRSSGSFCYCHPDS [F1P] showed a protein stability index of 4.21.
Variant NCYCAGSHKRKRSSGSFCYCHPDS [F1N] has a protein stability index of 3.81.
Variant HCYCAGSHKRKRSSGSFCYCHPDS [F1H] has a protein stability index of 3.17.
KCYCAGSHKRKRSSGSFCYCHPDS [F1K] gave a protein stability index of 3.78.
VCYCAGSHKRKRSSGSFCYCHPDS [F1V] showed a protein stability index of 3.65.
FCYCAGSHKRKRSSGSFWYCHPDS [C18W] gave a protein stability index of 2.99.
FCYCAGSHKRKRSSGSFPYCHPDS [C18P] showed a protein stability index of 2.1.
For FCYCAGSHKRKRSSGSFTYCHPDS [C18T], the protein stability index was 1.79.
FCYCAGSHKRKRSSGSFAYCHPDS [C18A] gave a protein stability index of 2.74.
With FCYCAGSHKRKRSSGSFKYCHPDS [C18K] the protein stability index was 1.95.
FCYCAGSHKRKRSSGSFIYCHPDS [C18I] gave a protein stability index of 2.27.
Variant FCYCAGSHKRKRSSGSFQYCHPDS [C18Q] has a protein stability index of 2.63.
With FCYCAGSHKRKRSSGSFLYCHPDS [C18L] the protein stability index was 2.4.
For FCYCAGSHKRKRSSGSFHYCHPDS [C18H], the protein stability index was 1.77.
With FCYCAGSVKRKRSSGSFCYCHPDS [H8V] the protein stability index was 1.89.
With FCYCAGSWKRKRSSGSFCYCHPDS [H8W] the protein stability index was 2.59.
FCYCAGSSKRKRSSGSFCYCHPDS [H8S] gave a protein stability index of 2.33.
FCYCAGSRKRKRSSGSFCYCHPDS [H8R] gave a protein stability index of 1.9.
In the case of FCYCAGSTKRKRSSGSFCYCHPDS [H8T], the protein stability index is reported as 1.67.
For FCYCAGSMKRKRSSGSFCYCHPDS [H8M], the protein stability index was 1.66.
FCYCAGSNKRKRSSGSFCYCHPDS [H8N] gave a protein stability index of 2.19.
Work on FCYCAGSHTRKRSSGSFCYCHPDS [K9T] yielded a protein stability index of 1.29.

From the supplement of paper PMC10567573
